Measurements taken from doi:10.1101/2022.07.20.500788.

Legend:
Assay in all cases: filter binding
HsAGO2 = HsAGO2 (human, UniProt Q9UKV8 1-859)
AtAGO10+Hs-loop D795A = molecular target: T1, AtAGO10+Hs-loop D795A (Arabidopsis, UniProt Q9XGW1 1-712+Q9UKV8:602-608+721-988, D795A;internal_change)
T1 sequence: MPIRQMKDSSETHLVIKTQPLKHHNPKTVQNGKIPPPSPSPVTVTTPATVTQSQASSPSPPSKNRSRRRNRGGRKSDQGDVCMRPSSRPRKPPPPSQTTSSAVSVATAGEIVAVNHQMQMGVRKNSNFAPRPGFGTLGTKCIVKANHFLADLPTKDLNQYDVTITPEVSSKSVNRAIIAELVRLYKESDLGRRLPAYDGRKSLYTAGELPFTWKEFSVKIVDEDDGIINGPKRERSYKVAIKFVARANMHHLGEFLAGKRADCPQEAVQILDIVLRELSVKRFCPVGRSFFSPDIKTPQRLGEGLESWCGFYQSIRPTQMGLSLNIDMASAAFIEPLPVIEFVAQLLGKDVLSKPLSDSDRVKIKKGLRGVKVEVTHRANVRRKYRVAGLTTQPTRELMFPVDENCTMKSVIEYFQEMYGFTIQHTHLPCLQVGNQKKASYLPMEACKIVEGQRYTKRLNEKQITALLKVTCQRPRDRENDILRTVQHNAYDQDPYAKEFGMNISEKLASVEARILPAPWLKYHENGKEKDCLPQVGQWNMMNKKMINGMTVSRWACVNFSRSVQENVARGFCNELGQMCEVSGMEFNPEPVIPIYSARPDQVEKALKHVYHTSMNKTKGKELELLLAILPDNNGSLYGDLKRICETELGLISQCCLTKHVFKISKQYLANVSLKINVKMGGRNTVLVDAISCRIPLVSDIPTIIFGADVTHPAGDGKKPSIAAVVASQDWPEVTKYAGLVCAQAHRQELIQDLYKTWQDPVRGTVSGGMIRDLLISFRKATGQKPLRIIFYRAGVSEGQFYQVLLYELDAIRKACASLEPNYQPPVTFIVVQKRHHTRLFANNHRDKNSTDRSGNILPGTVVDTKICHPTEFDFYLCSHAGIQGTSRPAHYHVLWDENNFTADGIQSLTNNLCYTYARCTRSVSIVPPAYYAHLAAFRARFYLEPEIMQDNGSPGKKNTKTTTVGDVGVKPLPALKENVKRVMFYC

[1] = molecular target: T2, AtAGO10 D795A (wild-type PIWI loop) (Arabidopsis, UniProt Q9XGW1 1-988, D795A)
T2 sequence: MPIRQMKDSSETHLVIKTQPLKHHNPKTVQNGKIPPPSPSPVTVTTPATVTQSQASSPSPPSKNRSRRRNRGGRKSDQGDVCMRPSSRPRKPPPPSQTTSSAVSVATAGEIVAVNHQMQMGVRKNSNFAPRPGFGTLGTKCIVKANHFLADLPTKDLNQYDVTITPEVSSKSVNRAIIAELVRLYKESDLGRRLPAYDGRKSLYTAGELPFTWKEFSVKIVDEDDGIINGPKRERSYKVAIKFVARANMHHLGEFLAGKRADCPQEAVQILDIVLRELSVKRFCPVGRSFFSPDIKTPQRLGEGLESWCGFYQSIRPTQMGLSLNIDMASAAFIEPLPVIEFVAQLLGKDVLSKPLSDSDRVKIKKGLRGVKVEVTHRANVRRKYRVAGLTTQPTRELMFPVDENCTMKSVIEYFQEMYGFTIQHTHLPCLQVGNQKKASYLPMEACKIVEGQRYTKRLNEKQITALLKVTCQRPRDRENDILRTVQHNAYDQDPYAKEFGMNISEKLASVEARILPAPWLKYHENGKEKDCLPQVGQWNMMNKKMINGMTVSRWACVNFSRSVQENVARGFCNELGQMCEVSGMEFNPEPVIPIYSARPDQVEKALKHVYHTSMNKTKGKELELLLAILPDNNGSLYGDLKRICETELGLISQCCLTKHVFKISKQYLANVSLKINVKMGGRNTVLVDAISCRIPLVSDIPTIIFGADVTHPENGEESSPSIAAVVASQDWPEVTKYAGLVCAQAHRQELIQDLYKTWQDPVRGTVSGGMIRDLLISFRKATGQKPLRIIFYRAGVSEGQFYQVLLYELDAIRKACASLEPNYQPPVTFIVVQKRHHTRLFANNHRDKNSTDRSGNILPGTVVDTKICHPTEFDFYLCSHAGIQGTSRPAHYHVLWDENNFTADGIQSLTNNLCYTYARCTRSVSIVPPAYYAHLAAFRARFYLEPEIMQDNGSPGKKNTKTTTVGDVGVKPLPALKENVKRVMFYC

HsAGO2+At-loop = HsAGO2+At-loop (human, UniProt Q9UKV8 1-601+Q9XGW1:713-720+609-859, internal_change)

B1: guide RNA / 2-8 target (mixed)
RNA 1: UGGAGUGUGACAAUGGUGUUU
RNA 2: AAAAAAAAAAAAAACACUCCAAA
HsAGO2
  Kd: 86 ± 5 pM
AtAGO10+Hs-loop D795A
  Kd: 380 ± 30 pM
[1]
  Kd: 1330 ± 140 pM
HsAGO2+At-loop
  Kd: 6430 ± 240 pM

B2: guide RNA / 2-21 target (mixed)
RNA 1: UGGAGUGUGACAAUGGUGUUU
RNA 2: AAACACCAUUGUCACACUCCAAA
HsAGO2
  Kd: 10 ± 1 pM
AtAGO10+Hs-loop D795A
  Kd: 95 ± 12 pM
[1]
  Kd: 40 ± 7 pM
HsAGO2+At-loop
  Kd: 5 ± 1 pM
